19 substances from paper PMC7679444 can be followed below.

The test addresses GST-HA-ATG16L1(231–607) (UniProt Q676U5). Kind of test: peptide microarray. The following applies: 800, 600, 400 nM; n = 9; read off a plot.
Take “TMEM59 peptide (residues 268–280), wild type (from UniProt Q9BXS4) K273del; L274del”: the percent of parent was found to be 22 % WT.
As for “TMEM59 peptide (residues 268–280), wild type (from UniProt Q9BXS4) L274del; I276del”, the percent of parent came out at 20 % WT.
Take “TMEM59 peptide (residues 268–280), wild type (from UniProt Q9BXS4) I276del”: the percent of parent turned out to be 50 % WT.
On to “TMEM59 peptide (residues 268–280), wild type (from UniProt Q9BXS4) K273del; I276del”, for which the percent of parent was 32 % WT.
The figure for “TMEM59 peptide (residues 268–280), wild type (from UniProt Q9BXS4) K273del” is 15 % WT; for “TMEM59 peptide (residues 268–280), wild type (from UniProt Q9BXS4) K273del; L274del; I276del” it is 7 % WT; for “TMEM59 peptide (residues 268–280), wild type (from UniProt Q9BXS4) V269del” it is 20 % WT.
The figure for “TMEM59 peptide (residues 268–280), wild type (from UniProt Q9BXS4) L274del; S275del; I276del” is 72 % WT; for “TMEM59 peptide (residues 268–280), wild type (from UniProt Q9BXS4) L274del; S275del” it is 120 % WT.
With “TMEM59 peptide (residues 268–280), wild type (from UniProt Q9BXS4) V269del; S271del”, the percent of parent was 180 % WT.
The value for “TMEM59 peptide (residues 268–280), wild type (from UniProt Q9BXS4) K273del; S275del” was 160 % WT; that for “TMEM59 peptide (residues 268–280), wild type (from UniProt Q9BXS4) S271del” was 180 % WT.
As for “TMEM59 peptide (residues 268–280), wild type (from UniProt Q9BXS4) P270del; S271del”, the percent of parent came out at 180 % WT.
The figure for “TMEM59 peptide (residues 268–280), wild type (from UniProt Q9BXS4) P270del” is 160 % WT.
The value for “TMEM59 peptide (residues 268–280), wild type (from UniProt Q9BXS4) V269del; P270del” was 130 % WT; that for “TMEM59 peptide (residues 268–280), wild type (from UniProt Q9BXS4) S275del” was 100 % WT; that for “TMEM59 peptide (residues 268–280), wild type (from UniProt Q9BXS4) L274del” was 22 % WT.
The figure for “TMEM59 peptide (residues 268–280), wild type (from UniProt Q9BXS4) S275del; I276del” is 80 % WT.
Regarding “TMEM59 peptide (residues 268–280), wild type (from UniProt Q9BXS4) K273del; L274del; S275del”, the percent of parent came to 120 % WT.
